From the Human Domainome abundance scans (Beltran et al. 2025)
± gives the uncertainty stated by the source.

B1: Protein S100-G, residues 1 to 79; numbered along this chain, P02633 (parent)
chain: MSAKKSPEELKGIFEKYAAKEGDPNQLSKEELKLLLQTEFPSLLKGPSTLDELFEELDKNGDGEVSFEEFQVLVKKISQ

Variants of: B1
Assay: abundance fitness (aPCA) (normalised: wild type 0, dead -1); higher = more abundant; growth selection in yeast, the domain comes from the species named
Settings: Bos taurus

Variant | abundance fitness
MSAKKSPEELKGIFEKYAAKEGDPNQLSKEELKLLLQTEFPSLLKGPSTLDELFEELDKNGEGEVSFEEFQVLVKKISQ | 0.058 ± 0.078
MSAKKSPEELKGIFEKYAAKEGDPNQLSKEELKLLLQTEFPSLLKGPSTLDELFEELDKNGIGEVSFEEFQVLVKKISQ | -0.097 ± 0.076
MSAKKSPEELKGIFEKYAAKEGDPNQLSKEELKLLLQTEFPSLLKGPSTLDELFEELDKNGRGEVSFEEFQVLVKKISQ | -0.003 ± 0.065
MSAKKSPEELKGIFEKYAAKEGDPNQLSKEELKLLLQTEFPSLLKGPSTLDELFEELDKNGWGEVSFEEFQVLVKKISQ | -0.168 ± 0.088
MSAKKSPEELKGIFEKYAAKEGDPNQLSKEELKLLLQTEFPSLLKGPSTLDELFEELDKNGHGEVSFEEFQVLVKKISQ | -0.045 ± 0.069
MSAKKSPEELKGIFEKYAAKEGDPNQLSKEELKLLLQTEFPSLLKGPSTLDELFEELDKNGTGEVSFEEFQVLVKKISQ | -0.044 ± 0.067
MSAKKSPEELKGIFEKYAAKEGDPNQLSKEELKLLLQTEFPSLLKGPSTLDELFEELDKNGFGEVSFEEFQVLVKKISQ | -0.138 ± 0.076
MSAKKSPEELKGIFEKYAAKEGDPNQLSKEELKLLLQTEFPSLLKGPSTLDELFEELDKNGSGEVSFEEFQVLVKKISQ | 0.043 ± 0.062
MSAKKSPEELKGIFEKYAAKEGDPNQLSKEELKLLLQTEFPSLLKGPSTLDELFEELDKNGPGEVSFEEFQVLVKKISQ | -0.027 ± 0.074
MSAKKSPEELKGIFEKYAAKEGDPNQLSKEELKLLLQTEFPSLLKGPSTLDELFEELDKNGVGEVSFEEFQVLVKKISQ | -0.027 ± 0.065
MSAKKSPEELKGIFEKYAAKEGDPNQLSKEELKLLLQTEFPSLLKGPSTLDELFEELDKNGLGEVSFEEFQVLVKKISQ | -0.042 ± 0.059
MSAKKSPEELKGIFEKYAAKEGDPNQLSKEELKLLLQTEFPSLLKGPSTLDELFEELDKNGYGEVSFEEFQVLVKKISQ | -0.193 ± 0.078
MSAKKSPEELKGIFEKYAAKEGDPNQLSKEELKLLLQTEFPSLLKGPSTLDELFEELDKNGAGEVSFEEFQVLVKKISQ | -0.009 ± 0.069
MSAKKSPEELKGIFEKYAAKEGDPNQLSKEELKLLLQTEFPSLLKGPSTLDELFEELDKNGKGEVSFEEFQVLVKKISQ | 0.004 ± 0.078
MSAKKSPEELKGIFEKYAAKEGDPNQLSKEELKLLLQTEFPSLLKGPSTLDELFEELDKNMDGEVSFEEFQVLVKKISQ | -0.026 ± 0.091
MSAKKSPEELKGIFEKYAAKEGDPNQLSKEELKLLLQTEFPSLLKGPSTLDELFEELDKNFDGEVSFEEFQVLVKKISQ | -0.006 ± 0.089
MSAKKSPEELKGIFEKYAAKEGDPNQLSKEELKLLLQTEFPSLLKGPSTLDELFEELDKNPDGEVSFEEFQVLVKKISQ | 0.007 ± 0.079
MSAKKSPEELKGIFEKYAAKEGDPNQLSKEELKLLLQTEFPSLLKGPSTLDELFEELDKNQDGEVSFEEFQVLVKKISQ | -0.021 ± 0.084

Variant | abundance fitness
MSAKKSPEELKGIFEKYAAKEGDPNQLSKEELKLLLQTEFPSLLKGPSTLDELFEELDKNTDGEVSFEEFQVLVKKISQ | 0.006 ± 0.071
MSAKKSPEELKGIFEKYAAKEGDPNQLSKEELKLLLQTEFPSLLKGPSTLDELFEELDKNHDGEVSFEEFQVLVKKISQ | -0.163 ± 0.081
MSAKKSPEELKGIFEKYAAKEGDPNQLSKEELKLLLQTEFPSLLKGPSTLDELFEELDKNCDGEVSFEEFQVLVKKISQ | 0.026 ± 0.08
MSAKKSPEELKGIFEKYAAKEGDPNQLSKEELKLLLQTEFPSLLKGPSTLDELFEELDKNNDGEVSFEEFQVLVKKISQ | -0.072 ± 0.08
MSAKKSPEELKGIFEKYAAKEGDPNQLSKEELKLLLQTEFPSLLKGPSTLDELFEELDKNIDGEVSFEEFQVLVKKISQ | -0.019 ± 0.088
MSAKKSPEELKGIFEKYAAKEGDPNQLSKEELKLLLQTEFPSLLKGPSTLDELFEELDKNVDGEVSFEEFQVLVKKISQ | -0.021 ± 0.073
MSAKKSPEELKGIFEKYAAKEGDPNQLSKEELKLLLQTEFPSLLKGPSTLDELFEELDKNLDGEVSFEEFQVLVKKISQ | -0.063 ± 0.064
MSAKKSPEELKGIFEKYAAKEGDPNQLSKEELKLLLQTEFPSLLKGPSTLDELFEELDKNEDGEVSFEEFQVLVKKISQ | 0.067 ± 0.1
MSAKKSPEELKGIFEKYAAKEGDPNQLSKEELKLLLQTEFPSLLKGPSTLDELFEELDKNWDGEVSFEEFQVLVKKISQ | -0.024 ± 0.085
MSAKKSPEELKGIFEKYAAKEGDPNQLSKEELKLLLQTEFPSLLKGPSTLDELFEELDKNKDGEVSFEEFQVLVKKISQ | -0.05 ± 0.085
MSAKKSPEELKGIFEKYAAKEGDPNQLSKEELKLLLQTEFPSLLKGPSTLDELFEELDKNYDGEVSFEEFQVLVKKISQ | -0.065 ± 0.083
MSAKKSPEELKGIFEKYAAKEGDPNQLSKEELKLLLQTEFPSLLKGPSTLDELFEELDKNSDGEVSFEEFQVLVKKISQ | 0.019 ± 0.063
MSAKKSPEELKGIFEKYAAKEGDPNQLSKEELKLLLQTEFPSLLKGPSTLDELFEELDKNRDGEVSFEEFQVLVKKISQ | -0.042 ± 0.065
MSAKKSPEELKGIFEKYAAKEGDPNQLSKEELKLLLQTEFPSLLKGPSTLDELFEELDKWGDGEVSFEEFQVLVKKISQ | -0.091 ± 0.092
MSAKKSPEELKGIFEKYAAKEGDPNQLSKEELKLLLQTEFPSLLKGPSTLDELFEELDKTGDGEVSFEEFQVLVKKISQ | -0.042 ± 0.078
MSAKKSPEELKGIFEKYAAKEGDPNQLSKEELKLLLQTEFPSLLKGPSTLDELFEELDKNGDGEASFEEFQVLVKKISQ | -0.091 ± 0.07
MSAKKSPEELKGIFEKYAAKEGDPNQLSKEELKLLLQTEFPSLLKGPSTLDELFEELDKNGDGECSFEEFQVLVKKISQ | -0.05 ± 0.078
